Experiment [1] concerns the target T1, Homo sapiens factor Bb protein (human, UniProt P00751 260-764).
T1 construct: Bought from CompTech (A155); also called complement factor Bb; human factor Bb
Nature of the experiment: SPR single cycle kinetics; against cynomolgus monkey factor Bb. The protocol:
(§1) The ability of VH4/VK6 and VH6/VK7 to bind to zymogen factor B and factor Bb from both human and cynomolgus monkey was determined by surface plasmon resonance using a Biacore T200. Human factor B and factor Bb were purchased from Comptech and cynomolgus monkey factor B and factor Bb were purified in-house. Briefly, the monoclonal antibodies were captured on a Biacore Series S Protein A chip in HBSP+ (10 mM HEPES, 150 mM NaCl, 0.05% P20 pH 7.4) at a flow rate of 30 μL/min. A five-point concentration series of each analyte was tested for binding using single cycle kinetics with a contact time of 180 seconds per concentration followed by a 600 sec dissociation at 25° C. and a flow rate of […]. Both human and cynomolgus monkey factor B started at a concentration of 500 nM followed by 2-fold dilutions, while human and cynomolgus monkey factor Bb started at concentrations of 30 nM and 150 nM, respectively, followed by 2-fold dilutions. Data were analyzed using the Biacore evaluation software using a 1:1 binding model. […] Binding to human or cynomolgus monkey factor B was barely detectable and the small signal that was observed was dominated by non-specific binding.

Experiment [2] concerns the target T1, Homo sapiens factor Bb protein. Nature of the experiment: SPR single cycle kinetics, antibody on Protein A chip, antigen analyte. The protocol: as §1
For experiment [3] the target is unchanged. The experiment in a line: BLI Octet, biotinylated antibody on SA biosensors. The protocol: Briefly, biotinylated antibodies were loaded onto SA Biosensors equilibrated in PBS, 0.1% BSA, 0.02% Tween-20 (assay buffer). After a 60 second baseline in assay buffer, antibodies were loaded onto the probes for 180 seconds, followed by another 60 second baseline. Association to human (Comptech) or cynomolgus monkey factor Bb (purified in-house) was measured for 300 seconds, followed by a 300 second dissociation. Kinetic parameters were calculated by the Octet Analysis software using a 1:1 binding model.

By Kd is commonly meant the constant that tells how readily two partners part at equilibrium. What is called koff is the first-order rate constant of dissociation. By kon is commonly meant the second-order rate constant of association.

T1 sequence (P00751 260-764 limits assumed): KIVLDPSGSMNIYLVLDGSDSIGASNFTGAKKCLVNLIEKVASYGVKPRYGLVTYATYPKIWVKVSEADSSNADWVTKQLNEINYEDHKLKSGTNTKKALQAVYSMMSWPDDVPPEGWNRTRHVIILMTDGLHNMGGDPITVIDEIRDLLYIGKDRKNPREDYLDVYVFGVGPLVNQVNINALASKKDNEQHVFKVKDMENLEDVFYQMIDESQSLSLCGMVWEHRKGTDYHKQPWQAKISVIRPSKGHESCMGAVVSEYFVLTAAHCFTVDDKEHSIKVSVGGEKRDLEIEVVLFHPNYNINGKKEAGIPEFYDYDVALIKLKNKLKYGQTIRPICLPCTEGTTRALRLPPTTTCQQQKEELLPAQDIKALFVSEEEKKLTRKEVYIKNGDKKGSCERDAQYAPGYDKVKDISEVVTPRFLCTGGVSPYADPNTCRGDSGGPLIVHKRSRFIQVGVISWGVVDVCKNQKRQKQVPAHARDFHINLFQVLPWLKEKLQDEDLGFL

B1: VH6/Vκ7-IgG4v2 (antibody)
heavy: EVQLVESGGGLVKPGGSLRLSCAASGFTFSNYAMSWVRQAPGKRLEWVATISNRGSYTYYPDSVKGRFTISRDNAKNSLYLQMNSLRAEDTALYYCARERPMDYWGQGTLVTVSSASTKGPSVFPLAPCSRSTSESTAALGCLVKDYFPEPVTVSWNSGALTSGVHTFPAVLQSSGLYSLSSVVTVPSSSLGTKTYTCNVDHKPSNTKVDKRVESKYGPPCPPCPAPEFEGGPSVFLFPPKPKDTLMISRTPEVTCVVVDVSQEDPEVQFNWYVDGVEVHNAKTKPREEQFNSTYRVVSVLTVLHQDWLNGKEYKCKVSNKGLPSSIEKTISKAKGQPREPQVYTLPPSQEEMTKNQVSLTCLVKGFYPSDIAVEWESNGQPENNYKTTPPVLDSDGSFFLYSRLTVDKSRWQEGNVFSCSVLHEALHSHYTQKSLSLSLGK
light: DIQMTQSPSTLSASVGDRVTITCKASQDVGTAVAWYQQKPGKAPKLLIYWASTRHTGVPDRFSGSGSGTDFTLTISSLQAEDFAVYFCHQHSSNPLTFGQGTKLEIKRTVAAPSVFIFPPSDEQLKSGTASVVCLLNNFYPREAKVQWKVDNALQSGNSQESVTEQDSKDSTYSLSSTLTLSKADYEKHKVYACEVTHQGLSSPVTKSFNRGEC
notes: also called VH6/VK7-IgG4v2; VH6/VK7-IgG4v2_HEK
As for B1, in experiment [1], the “fold higher affinity for human factor Bb compared to cynomolgus monkey factor Bb” value is roughly 10 fold. Moreover, in experiment [2], the affinity, expressed as Kd, was 5.92 nM; the koff turned out to be 0.00138 s⁻¹; the kon turned out to be 232000 M⁻¹ s⁻¹.

B2: VH0/Vκ0 (Chimeric) (antibody, V domains shown)
VH: EVQLVESGGALVKPGGSLKLSCAASGFTFSNYAMSWVRQTPEKRLEWVATISNRGSYTYYPDSVKGRFTISRDNAKNTLYLQMSSLRSEDTALYYCARERPMDYWGQGTSVTVSS
VL: DIVMTQSHKFMSTSVGDRVSITCKASQDVGTAVAWYQQKPGQSPKLLIYWASTRHTGVPDRFTGSGSGTDFTLTITNVQSEDLAVYFCHQHSSNPLTFGAGTKLELK
notes: also called chimeric antibody
The molecule B2 came in with a Kd in experiment [3] of 2 nM.

Source of the values: US20210332115A1 (Sanofi, published 2021).
